Results published in article PMC7144908.

B1: ssDNA(Site2) (ssDNA)
DNA: GCTCAGAGGCCGAGGCGGCCTCGGCCTCTGCATAAATAAAAAAAATTAGTCAGCCAT
B2: dsDNA(Site2) (dsDNA)
DNA 1: GCTCAGAGGCCGAGGCGGCCTCGGCCTCTGCATAAATAAAAAAAATTAGTCAGCCAT
DNA 2: ATGGCTGACTAATTTTTTTTATTTATGCAGAGGCCGAGGCCGCCTCGGCCTCTGAGC
B3: ssDNA(GAPDH) (ssDNA)
DNA: CGACAGTCAGCCGCATCTTCTTTTGCGTCGCCAGCCGAGCCCTATAGTGAGTCGTAT
B4: dsDNA(GAPDH) (dsDNA)
DNA 1: CGACAGTCAGCCGCATCTTCTTTTGCGTCGCCAGCCGAGCCCTATAGTGAGTCGTAT
DNA 2: ATACGACTCACTATAGGGCTCGGCTGGCGACGCAAAAGAAGATGCGGCTGACTGTCG

Key:
[1] = target: T1, SV40 large T antigen (Tag) (Simian virus 40, UniProt P03070 1-708); assay: EMSA
[2] = target: T1, SV40 large T antigen (Tag); assay: EMSA; remark: listed apart in the source
[3] = target: T1, SV40 large T antigen (Tag); assay: DSF
[4] = target: T1, SV40 large T antigen (Tag); assay: DSF; remark: listed apart in the source
[5] = target: T1, SV40 large T antigen (Tag); assay: EMSA; remark: listed apart in the source
[6] = target: T1, SV40 large T antigen (Tag); assay: DSF; remark: listed apart in the source
[7] = target: T1, SV40 large T antigen (Tag); assay: DSF; remark: listed apart in the source
[8] = target: T1, SV40 large T antigen (Tag); assay: EMSA; remark: listed apart in the source
[9] = target: T1, SV40 large T antigen (Tag); assay: EMSA; remark: listed apart in the source
[10] = target: Replication protein A (RPA) (human, UniProt P27694;P15927;P35244 1-616;1-270;1-121); assay: EMSA
[11] = target: SV40 large T antigen (Tag);Replication protein A (RPA) (Simian virus 40;human, UniProt P03070;P27694;P15927;P35244 1-708;1-616;1-270;1-121, |); assay: EMSA
[12] = target: T1, SV40 large T antigen (Tag); assay: EMSA; remark: listed apart in the source
[13] = target: T1, SV40 large T antigen (Tag); assay: EMSA; remark: listed apart in the source
[14] = target: T1, SV40 large T antigen (Tag); assay: AUC

T1 sequence (P03070 whole entry): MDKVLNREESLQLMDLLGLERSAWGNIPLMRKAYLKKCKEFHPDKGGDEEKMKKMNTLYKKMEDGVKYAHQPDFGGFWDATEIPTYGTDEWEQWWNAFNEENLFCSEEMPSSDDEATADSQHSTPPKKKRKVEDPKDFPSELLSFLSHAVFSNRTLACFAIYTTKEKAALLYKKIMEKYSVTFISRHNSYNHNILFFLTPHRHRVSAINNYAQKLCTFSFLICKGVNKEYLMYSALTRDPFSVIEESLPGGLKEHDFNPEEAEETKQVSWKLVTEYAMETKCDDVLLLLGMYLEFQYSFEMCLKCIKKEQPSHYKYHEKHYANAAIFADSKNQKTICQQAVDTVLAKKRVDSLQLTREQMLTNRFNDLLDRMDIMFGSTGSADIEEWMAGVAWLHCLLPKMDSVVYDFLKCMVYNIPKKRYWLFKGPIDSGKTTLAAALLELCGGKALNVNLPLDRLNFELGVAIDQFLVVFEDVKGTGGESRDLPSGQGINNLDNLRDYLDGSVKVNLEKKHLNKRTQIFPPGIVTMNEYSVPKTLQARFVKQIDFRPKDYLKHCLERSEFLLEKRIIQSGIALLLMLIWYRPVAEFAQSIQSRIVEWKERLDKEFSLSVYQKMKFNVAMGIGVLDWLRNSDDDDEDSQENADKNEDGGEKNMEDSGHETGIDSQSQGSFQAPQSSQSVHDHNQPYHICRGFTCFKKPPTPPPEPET
Sequence of SV40 large T antigen (Tag);Replication protein A (RPA) (P03070 whole entry, chain 1 of 4): as the sequence (P03070 whole entry) above
Sequence of SV40 large T antigen (Tag);Replication protein A (RPA) (P27694 whole entry, chain 2 of 4): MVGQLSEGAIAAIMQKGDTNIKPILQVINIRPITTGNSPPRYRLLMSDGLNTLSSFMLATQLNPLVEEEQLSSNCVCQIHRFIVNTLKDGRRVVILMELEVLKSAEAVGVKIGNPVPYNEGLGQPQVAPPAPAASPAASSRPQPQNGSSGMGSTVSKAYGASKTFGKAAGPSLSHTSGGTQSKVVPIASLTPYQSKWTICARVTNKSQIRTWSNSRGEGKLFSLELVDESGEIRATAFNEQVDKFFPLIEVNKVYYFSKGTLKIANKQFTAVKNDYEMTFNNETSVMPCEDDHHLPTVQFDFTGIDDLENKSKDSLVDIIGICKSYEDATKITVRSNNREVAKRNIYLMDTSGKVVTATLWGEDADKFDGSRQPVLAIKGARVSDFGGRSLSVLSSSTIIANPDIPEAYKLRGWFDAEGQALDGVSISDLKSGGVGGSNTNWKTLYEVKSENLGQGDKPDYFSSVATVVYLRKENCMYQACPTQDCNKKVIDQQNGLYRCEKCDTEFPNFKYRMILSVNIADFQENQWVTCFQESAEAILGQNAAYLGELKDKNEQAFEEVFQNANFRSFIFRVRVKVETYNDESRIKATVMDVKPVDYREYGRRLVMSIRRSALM
Sequence of SV40 large T antigen (Tag);Replication protein A (RPA) (P15927 whole entry, chain 3 of 4): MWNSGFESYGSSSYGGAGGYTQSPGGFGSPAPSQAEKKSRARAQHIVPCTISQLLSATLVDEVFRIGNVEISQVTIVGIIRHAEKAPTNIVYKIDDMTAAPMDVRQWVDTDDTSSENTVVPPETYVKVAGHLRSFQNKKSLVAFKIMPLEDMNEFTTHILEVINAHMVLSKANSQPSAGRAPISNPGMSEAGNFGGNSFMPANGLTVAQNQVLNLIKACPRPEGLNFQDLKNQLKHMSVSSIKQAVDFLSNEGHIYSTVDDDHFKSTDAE
Sequence of SV40 large T antigen (Tag);Replication protein A (RPA) (P35244 whole entry, chain 4 of 4): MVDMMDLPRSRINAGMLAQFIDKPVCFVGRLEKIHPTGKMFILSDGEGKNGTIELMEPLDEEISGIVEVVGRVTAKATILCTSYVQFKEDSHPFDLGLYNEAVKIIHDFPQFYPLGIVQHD
Sequence of Replication protein A (RPA) (P27694 whole entry, chain 1 of 3): as the sequence (P27694 whole entry, chain 2 of 4) above
Sequence of Replication protein A (RPA) (P15927 whole entry, chain 2 of 3): as the sequence (P15927 whole entry, chain 3 of 4) above
Sequence of Replication protein A (RPA) (P35244 whole entry, chain 3 of 3): as the sequence (P35244 whole entry, chain 4 of 4) above

Row | Binder | Kd [3] | Kd [4] | Kd [8] | Kd [9] | other results
1 | B1 | 50 ± 10 nM | 40 ± 7 nM | 40 ± 5 nM | 70 ± 8 nM | Kd [1]: 40 ± 10 nM; Kd [2]: 70 ± 10 nM; Kd [5]: 80 ± 30 nM; Kd [6]: 200 ± 60 nM; Kd [7]: 100 ± 30 nM
2 | B2 | – | 120 ± 110 nM | 100 ± 50 nM | 220 ± 130 nM | –
3 | B3 | 10 ± 1 nM | – | – | 40 ± 10 nM | Kd [10]: ~10 nM; binding result [11]: binds; Kd [12]: 80 ± 40 nM; Kd [13]: ~110 nM
4 | B4 | – | 5800 ± 4000 nM | – | – | –
5 | GGTCGACTCTAGAGGATCAGATCTGGTACCTCTAGACTCGAGGCATGC (ssDNA) [ssDNA (gap) 48-mer] | – | – | – | – | binding result [14]: binds
